Source: patent US20210032365A1 (Chugai, published 2021)
Residue numbers refer to the chain shown, from its start. Names and notes keep the numbering of the source.

T1: Serum-derived human C1s (human, UniProt P09871 16-688)
T1 construct: The analyte was C1s purified from serum; also called hC1s
T1 sequence: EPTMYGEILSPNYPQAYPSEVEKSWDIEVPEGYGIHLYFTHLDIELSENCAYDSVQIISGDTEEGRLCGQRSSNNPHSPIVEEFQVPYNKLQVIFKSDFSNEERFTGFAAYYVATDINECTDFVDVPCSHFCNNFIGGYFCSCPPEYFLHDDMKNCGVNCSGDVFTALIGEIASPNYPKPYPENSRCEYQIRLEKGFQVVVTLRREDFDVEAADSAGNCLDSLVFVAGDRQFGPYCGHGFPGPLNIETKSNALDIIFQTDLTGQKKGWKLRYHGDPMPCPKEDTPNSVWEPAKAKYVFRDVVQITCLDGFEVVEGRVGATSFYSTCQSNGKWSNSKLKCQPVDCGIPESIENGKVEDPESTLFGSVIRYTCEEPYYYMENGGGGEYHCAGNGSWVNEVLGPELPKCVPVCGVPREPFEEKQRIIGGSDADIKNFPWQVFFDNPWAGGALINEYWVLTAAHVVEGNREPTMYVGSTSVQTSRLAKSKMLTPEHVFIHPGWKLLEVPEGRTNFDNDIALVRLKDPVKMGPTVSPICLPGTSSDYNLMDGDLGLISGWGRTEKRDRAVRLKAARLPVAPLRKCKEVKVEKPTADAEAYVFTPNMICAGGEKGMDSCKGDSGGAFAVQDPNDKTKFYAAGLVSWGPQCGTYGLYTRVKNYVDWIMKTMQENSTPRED

T2: human C1s (human, UniProt P09871 16-688)
T2 construct: also called hC1s; serum-derived human C1s (CompTech)
T2 sequence: T1 sequence

B1: IPN009VH2/IPN009VK3-SG136 (antibody, human IgG1, kappa)
heavy: EVMLVESGGGLVKPGGSLRLSCAASGFTFSNYAMSWVRQAPGKGLEWVATISSGGSHTYYLDSVKGRFTISRDNSKDTLYLQMNSLRAEDTALYYCARLFTGYAMDYWGQGTLVTVSSASTKGPSVFPLAPSSKSTSGGTAALGCLVKDYFPEPVTVSWNSGALTSGVHTFPAVLQSSGLYSLSSVVTVPSSSLGTQTYICNVNHKPSNTKVDKKVEPKSCDKTHTCPPCPAPELRRGPSVFLFPPKPKDTLMISRTPEVTCVVVDVSHEDPEVKFNWYVDGVEVHNAKTKPREEQYNSTYRVVSVLTVLHQDWLNGKEYKCKVSNKGLPSSIEKTISKAKGQPREPQVYTLPPSREEMTKNQVSLTCLVKGFYPSDIAVEWESNGQPENNYKTTPPVLDSDGSFFLYSKLTVDKSRWQQGNVFSCSVMHEALHNHYTQKSLSLSP
light: QIVLTQSPATLSLSPGERATLSCTASSSVSSSYLHWYQQKPGKAPKLWIYSTSNLASGVPSRFSGSGSGTDYTLTISSLQPEDFATYYCHQYYRLPPITFGQGTKLEIKRTVAAPSVFIFPPSDEQLKSGTASVVCLLNNFYPREAKVQWKVDNALQSGNSQESVTEQDSKDCTYSLSSTLTLSKADYEKHKVYACEVTHQGLSSPVTKSFNRGEC
notes: also called parent antibody
B2: IPN009VH2/IPN93L0023-SG136 (antibody, human IgG1, kappa, name in Kabat numbering)
heavy: B1 heavy
light: B1 light with L95H
notes: also called IPN00VH2/IPN93L0023-SG136
B3: IPN009VH2/IPN93L0021-SG136 (antibody, human IgG1, kappa, name in Kabat numbering)
heavy: B1 heavy
light: B1 light with Y93H
notes: The substitution is numbered by Kabat
B4: IPN92H0033/IPN009VK3-SG136 (antibody, human IgG1, kappa)
heavy: B1 heavy with Y103H
light: B1 light
notes: VH is IPN009VH2 with Y99H (Kabat)
B5: IPN009VH2/IPN93L0024-SG136 (antibody, human IgG1, kappa)
heavy: B1 heavy
light: B1 light with P96H
notes: VL is IPN009VK3 with P95H (Kabat)
B6: C1_IPN92H0038-SG4GK/IPN93L0028-SK1 (antibody, human IgG4 S228P, kappa, name in Kabat numbering, V domains shown)
VH: EVMLVESGGGLVKPGGSLRLSCAASGFTFSNYAMSWVRQAPGKGLEWVATISSGGSHTYYLDSVKHRFTISRDNSKDTLYLQMNSLRAEDTALYYCARLFTGHAMDYWGQGTLVTVSS
VL: QIVLTQSPATLSLSPGERATLSCTASSSVSSSYLHWYQQKPGKAPKLWIYSTSNLASGVPSRFSGSGSGTDYTLTISSLQPEDFATYYCHQYHRHPPITFGQGTKLEIKR
notes: also called IPN92H0038/IPN93L0028
B7: C1_IPN92H0038-SG4GK/IPN93L0029-SK1 (antibody, human IgG4 S228P, kappa, name in Kabat numbering, V domains shown)
VH: B6 VH
VL: B6 VL with H95L, P96H
notes: also called IPN92H0038/IPN93L0029
B8: C1_IPN92H0038-SG4GK/IPN93L0030-SK1 (antibody, human IgG4 S228P, kappa, name in Kabat numbering, V domains shown)
VH: B6 VH
VL: B6 VL with H93Y, P96H
notes: also called IPN92H0038/IPN93L0030
B9: C1_IPN92H0038-SG4GK/IPN93L0031-SK1 (antibody, human IgG4 S228P, kappa, name in Kabat numbering, V domains shown)
VH: B6 VH
VL: B6 VL with P96H
notes: also called IPN92H0038/IPN93L0031
B10: C1_IPN92H0048-SG4GK/IPN93L0024-SK1 (antibody, human IgG4 S228P, kappa, name in Kabat numbering, V domains shown)
VH: B6 VH with F27H, H66G
VL: B6 VL with H93Y, H95L, P96H
notes: also called IPN92H0048/IPN93L0024

How the values were obtained:
[1] = biological target: T1, Serum-derived human C1s; experiment: SPR Biacore T200, 37 C, antibody captured on protein A/G, pH 7.4, 1.2 mM CaCl2
Experimental: (§1) The binding affinity of all histidine-substituted variants at pH 7.4 and pH 5.8 were determined at 37 degrees C. using Biacore T200 instrument (GE Healthcare). Recombinant Protein A/G (Pierce) was immobilized onto all flow cells of a CM4 sensor chip using amine coupling kit (GE Healthcare). Antibodies and analytes were prepared in 7(+) buffer (20 mM ACES, 150 mM NaCl, 1.2 mM CaCl2, 0.05% Tween 20, 0.005% NaN3, pH 7.4) or 5(+) buffer (20 mM ACES, 150 mM NaCl, 1.2 mM CaCl2), 0.05% Tween 20, 0.005% NaN3, pH 5.8). Each antibody was captured onto the sensor surface by protein A/G. Antibody capture levels were aimed at 200 resonance unit (RU). […] Sensor surface was regenerated each cycle with 10 mM Glycine-HCl pH 1.5. […] An additional dissociation phase at pH 5.8 was integrated immediately after the dissociation phase at pH 7.4. This dissociation rate in 5(+) buffer was determined by processing and fitting data using Scrubber 2.0 (BioLogic Software) curve fitting software.

[2] = biological target: T1, Serum-derived human C1s; experiment: SPR Biacore T200, 37 C, antibody captured on protein A/G, pH 5.8, 1.2 mM CaCl2
Experimental: as §1

[3] = biological target: T1, Serum-derived human C1s; experiment: SPR Biacore T200, 37 C, ratio of dissociation rates pH 5.8 / pH 7.4, 1.2 mM CaCl2
Experimental: as §1

[4] = biological target: T1, Serum-derived human C1s; experiment: SPR Biacore T200, 37 C, ratio of KD pH 5.8 / pH 7.4, 1.2 mM CaCl2
Experimental: as §1, with “software. […]” for “software.”

[5] = biological target: T2, human C1s; experiment: SPR, Ab captured; pH 5.8, 3 uM Ca
Experimental: (§2) All variants were transiently expressed and purified by the method described above. The binding affinity of each histidine-substituted variant at pH 7.4 and pH 5.8 was determined at 37 degrees C. using Biacore T200 instrument (GE Healthcare). Recombinant Protein A/G (Pierce) was immobilized onto all flow cells of a CM4 sensor chip using an amine coupling kit (GE Healthcare). Antibodies and analytes were prepared in 7(+) buffer (20 mM ACES, 150 mM NaCl, 1.2 mM CaCl2, 0.05% Tween 20, 0.005% NaN3, pH 7.4), 5(+) buffer (20 mM ACES, 150 mM NaCl, 1.2 mM CaCl2, 0.05% Tween 20, 0.005% NaN3, pH 5.8), or 5(−) buffer (20 mM ACES, 150 mM NaCl, 3 micro M CaCl2, 0.05% Tween 20, 0.005% NaN3, pH 5.8). Each antibody was captured onto the sensor surface by protein A/G. Antibody capture levels were aimed at 200 resonance unit (RU). Serum-derived human C1s (CompTech) or recombinant C1s prepared in EXAMPLE 1 was injected at 50 nM, followed by dissociation. The sensor surface was regenerated in each cycle with 10 mM Glycine-HCl, pH 1.5. […] The ratio of KD 5.8+ to KD 7.4+(“KD 5+/7+”) and that of KD 5.8− to KD 7.4+(“KD 5−/7+”) were calculated. When the KD 5+/7+ or KD 5−/7+ of a variant is larger than that of the parent antibody IPN009VH2-SG4GK/IPN009VK3-SK1, that variant is considered to be “pH”- or “pH and Ca”-dependent, respectively. When binding response in 5(+) buffer and/or in 5(−) buffer of a variant is much lower than that of IPN09VH2/IPN009VK3, that variant is also considered as “pH”- and/or “pH and Ca”-dependent. Therefore, such mutations are effective to generate “pH”- and/or “pH and Ca”-dependent antibody. To further enhance “pH” and/or “pH and Ca” dependency, a combination of histidine mutations was conducted. Antibodies with combinations of histidine mutations were evaluated using Biacore by the method described above.

[6] = biological target: T2, human C1s; experiment: SPR, Ab captured; pH 7.4, 1.2 mM Ca
Experimental: as §2

[7] = biological target: T2, human C1s; experiment: SPR; KD pH 5.8 1.2 mM Ca / KD pH 7.4 1.2 mM Ca
Experimental: as §2

[8] = biological target: T2, human C1s; experiment: SPR; KD pH 5.8 3 uM Ca / KD pH 7.4 1.2 mM Ca
Experimental: as §2

[9] = biological target: T2, human C1s; experiment: SPR, Ab captured; pH 5.8, 1.2 mM Ca
Experimental: as §2

| Binder | kon [1] [M⁻¹ s⁻¹] | koff [2] [s⁻¹] | kon [2] [M⁻¹ s⁻¹] | koff (5.8+ of 775+)/koff (7.4+) [3] | KD (5.8+)/KD (7.4+) [4] | Kd [1] [nM] | Kd [2] [nM] | Kd [5] [nM] | koff [5] [s⁻¹] | kon [5] [M⁻¹ s⁻¹] | Kd [6] [nM] | koff [6] [s⁻¹] | kon [6] [M⁻¹ s⁻¹] | KD 5(+)/7(+) [7] | KD 5(-)/7(+) [8] | Kd [9] [nM] | koff [9] [s⁻¹] | kon [9] [M⁻¹ s⁻¹] |
| --- | --- | --- | --- | --- | --- | --- | --- | --- | --- | --- | --- | --- | --- | --- | --- | --- | --- | --- |
| B1 | 344000 | 0.000162 | 360000 | 0.2 | 0.4 | – | – | – | – | – | – | – | – | – | – | – | – | – |
| B2 | 227000 | 0.000818 | 330000 | 1.1 | 0.9 | 2.77 | 2.48 | – | – | – | – | – | – | – | – | – | – | – |
| B3 | 199000 | 0.00126 | 290000 | 1.9 | 1.5 | – | – | – | – | – | – | – | – | – | – | – | – | – |
| B4 | 377000 | 0.000362 | 389000 | 0.7 | 0.9 | – | – | – | – | – | – | – | – | – | – | – | – | – |
| B5 | 180000 | 0.000956 | 221000 | 1.2 | 1.3 | – | – | – | – | – | – | – | – | – | – | – | – | – |
| B6 | – | – | – | – | – | – | – | 27.3 | 0.0174 | 637000 | 2.36 | 0.00125 | 528000 | 7.5 | 11.6 | 17.7 | 0.00789 | 445000 |
| B7 | – | – | – | – | – | – | – | 6.62 | 0.00522 | 789000 | 7.15 | 0.003 | 419000 | 3.4 | 0.9 | 24.2 | 0.0131 | 539000 |
| B8 | – | – | – | – | – | – | – | 599 | 0.00538 | 8980 | 19.9 | 0.0111 | 558000 | 3.5 | 30.1 | 70.3 | 0.017 | 241000 |
| B9 | – | – | – | – | – | – | – | 3.9 | 0.00476 | 1.22e+06 | 5.22 | 0.0396 | 7.59e+06 | 0.2 | 0.7 | 1.24 | 0.00146 | 1.18e+06 |
| B10 | – | – | – | – | – | – | – | 3.36 | – | – | 3.14 | 0.00082 | 261000 | 3.9 | 1.1 | 12.1 | 0.00637 | 528000 |
